This note sets out measurements from article PMC11702601.

Holding throughout (experiment): MST
The target of test [1] is T2 gp006-6×His (phage T2).
Test [2] concerns the target T2 gp057-6×His (phage T2).
Test [3] has as its target T2 gp009-6×His (phage T2).
Test [4] concerns the target T2 gp006^I20A-6×His (phage T2).

With bNACHT11 (natural protein), the dissociation constant (Kd) was found to be 0.08 µM in test [1], 0.149 µM in test [2], 0.269 µM in test [3] and 0.351 µM in test [4].
